The values below are quoted from earlier work in US20040209344A1, “Crystal structure of angiotensin-converting enzyme-related carboxypeptidase” (priority 2002, published 2004).

“Also recorded” adds a separate entry of the source. Like-named read-outs stand apart in the source and are kept apart here.

In data set [1] the target is T1, ACE2 (Homo sapiens, UniProt Q9BYF1).
Target sequence in this assay (Q9BYF1 18-805): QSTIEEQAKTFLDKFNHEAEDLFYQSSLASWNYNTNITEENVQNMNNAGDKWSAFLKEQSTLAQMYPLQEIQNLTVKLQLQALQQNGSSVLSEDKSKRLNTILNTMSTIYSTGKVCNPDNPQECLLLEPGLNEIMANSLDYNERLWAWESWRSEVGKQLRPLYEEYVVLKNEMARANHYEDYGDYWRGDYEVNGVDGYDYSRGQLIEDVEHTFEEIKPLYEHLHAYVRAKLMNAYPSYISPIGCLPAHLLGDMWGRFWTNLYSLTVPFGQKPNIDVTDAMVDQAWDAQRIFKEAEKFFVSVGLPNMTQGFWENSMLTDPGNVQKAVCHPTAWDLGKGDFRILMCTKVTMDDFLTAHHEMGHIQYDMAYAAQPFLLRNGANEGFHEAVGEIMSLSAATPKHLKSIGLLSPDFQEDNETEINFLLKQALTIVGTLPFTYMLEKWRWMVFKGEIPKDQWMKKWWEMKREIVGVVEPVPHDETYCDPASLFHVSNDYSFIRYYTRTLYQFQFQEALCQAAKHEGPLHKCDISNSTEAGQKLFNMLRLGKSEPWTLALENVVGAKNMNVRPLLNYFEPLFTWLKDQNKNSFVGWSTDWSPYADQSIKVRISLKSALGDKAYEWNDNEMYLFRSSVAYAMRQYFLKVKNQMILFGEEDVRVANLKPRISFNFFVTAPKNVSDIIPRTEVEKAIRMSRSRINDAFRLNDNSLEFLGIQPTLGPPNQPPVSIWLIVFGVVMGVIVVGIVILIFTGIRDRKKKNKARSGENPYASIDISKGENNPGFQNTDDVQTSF
The target in data set [2] is T1, ACE2. Also on record: made in house; host or cells: SF9 insect cells, baculovirus (pBac Pak9 vector), secreted into the culture supernatant. As to conditions: Tipnis et al.
Target sequence in this assay (Q9BYF1 19-740): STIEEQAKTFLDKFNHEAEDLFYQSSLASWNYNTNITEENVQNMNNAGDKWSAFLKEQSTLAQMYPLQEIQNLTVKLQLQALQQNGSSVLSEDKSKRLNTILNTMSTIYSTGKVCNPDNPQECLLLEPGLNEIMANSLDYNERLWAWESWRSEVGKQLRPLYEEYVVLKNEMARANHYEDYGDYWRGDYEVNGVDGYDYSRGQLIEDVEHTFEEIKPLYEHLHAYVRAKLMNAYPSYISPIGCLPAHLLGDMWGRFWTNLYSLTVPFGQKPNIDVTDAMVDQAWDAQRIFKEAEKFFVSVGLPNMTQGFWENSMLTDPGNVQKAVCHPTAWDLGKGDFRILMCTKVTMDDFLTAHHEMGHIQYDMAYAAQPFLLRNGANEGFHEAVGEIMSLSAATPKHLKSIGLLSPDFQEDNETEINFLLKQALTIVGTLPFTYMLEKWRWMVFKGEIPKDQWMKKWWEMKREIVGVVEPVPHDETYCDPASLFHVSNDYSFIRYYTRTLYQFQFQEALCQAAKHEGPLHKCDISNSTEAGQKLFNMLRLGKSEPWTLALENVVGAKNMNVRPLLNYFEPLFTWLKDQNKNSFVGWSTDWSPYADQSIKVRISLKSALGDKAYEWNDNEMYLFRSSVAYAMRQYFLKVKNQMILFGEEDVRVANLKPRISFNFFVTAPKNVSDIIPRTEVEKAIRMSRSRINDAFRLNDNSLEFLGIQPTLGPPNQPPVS
For data set [3], the target named is somatic ACE D991 to E mutant (Homo sapiens, UniProt P12821, D1020E). As to conditions: mutation of D991 to E in somatic ACE; Williams et al.
somatic ACE D991 to E mutant, sequence (P12821 30-1306 D1020E): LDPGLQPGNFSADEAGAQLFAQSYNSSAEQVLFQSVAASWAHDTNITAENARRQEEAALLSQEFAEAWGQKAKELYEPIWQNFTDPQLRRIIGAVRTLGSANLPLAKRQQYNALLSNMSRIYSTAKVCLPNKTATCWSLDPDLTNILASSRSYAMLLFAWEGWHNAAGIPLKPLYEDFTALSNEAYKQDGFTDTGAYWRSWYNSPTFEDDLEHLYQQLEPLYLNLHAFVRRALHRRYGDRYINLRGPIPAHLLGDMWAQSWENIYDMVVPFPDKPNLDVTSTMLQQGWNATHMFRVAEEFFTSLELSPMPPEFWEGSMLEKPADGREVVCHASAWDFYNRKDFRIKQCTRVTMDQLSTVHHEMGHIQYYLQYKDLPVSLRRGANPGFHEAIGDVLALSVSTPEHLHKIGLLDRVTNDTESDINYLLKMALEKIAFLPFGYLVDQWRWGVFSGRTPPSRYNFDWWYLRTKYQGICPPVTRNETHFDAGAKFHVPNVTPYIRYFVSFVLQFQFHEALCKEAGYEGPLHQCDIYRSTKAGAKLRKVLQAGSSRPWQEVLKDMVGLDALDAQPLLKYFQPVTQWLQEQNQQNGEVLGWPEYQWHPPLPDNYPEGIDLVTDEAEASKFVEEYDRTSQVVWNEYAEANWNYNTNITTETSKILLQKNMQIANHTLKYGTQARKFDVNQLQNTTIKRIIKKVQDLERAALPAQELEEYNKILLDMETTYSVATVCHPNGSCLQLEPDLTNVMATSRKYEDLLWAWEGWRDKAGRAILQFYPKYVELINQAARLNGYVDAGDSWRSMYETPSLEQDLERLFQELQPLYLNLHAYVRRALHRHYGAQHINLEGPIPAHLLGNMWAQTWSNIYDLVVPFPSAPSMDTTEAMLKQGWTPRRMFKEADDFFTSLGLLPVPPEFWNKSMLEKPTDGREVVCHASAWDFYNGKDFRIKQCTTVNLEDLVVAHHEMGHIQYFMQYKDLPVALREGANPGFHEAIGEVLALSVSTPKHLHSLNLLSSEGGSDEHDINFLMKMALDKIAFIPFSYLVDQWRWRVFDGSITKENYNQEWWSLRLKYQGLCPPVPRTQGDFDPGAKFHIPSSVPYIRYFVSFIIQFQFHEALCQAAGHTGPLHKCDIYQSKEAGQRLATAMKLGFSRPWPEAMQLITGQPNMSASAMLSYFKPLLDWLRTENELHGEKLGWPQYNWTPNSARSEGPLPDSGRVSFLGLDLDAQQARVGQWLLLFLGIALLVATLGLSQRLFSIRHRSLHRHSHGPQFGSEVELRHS

Consider “Angiotensin 1-9: peptide DRVYIHPFH; SEQ ID NO: 3”, for which the “activity as peptide substrate for ACE2” value with ACE2 [1] (Vickers et al.) was “inactive”. Take `C[C@H](CS)C(=O)N1CCC[C@H]1C(=O)O` [captopril]: the “inhibition of ACE2 by ACE inhibitors” value at ACE2 [2] was “did not inhibit; also recorded: not active”. As for “Angiotensin II: vasoconstrictor peptide DRVYIHPF; SEQ ID NO: 2”, the “activity as peptide substrate for ACE2” value with ACE2 [1] (Vickers et al.) is on record as “best in vitro peptide substrates”. In the case of “Met-enkephalin: peptide YGGFM; SEQ ID NO: 9”, the “activity as peptide substrate for ACE2” value with ACE2 [1] (Vickers et al.) is “inactive”. As to Apelin 13, the “activity as peptide substrate for ACE2” value on ACE2 [1] is on record as “best in vitro peptide substrates”. Consider Dynorphin A 1-13, for which the “activity as peptide substrate for ACE2” value at ACE2 [1] (Vickers et al.) is given as “best in vitro peptide substrates”. Turning to “Leu-enkephalin: peptide YGGFL; SEQ ID NO: 8”, the “activity as peptide substrate for ACE2” value in the data set with ACE2 [1] (Vickers et al.) is “inactive”.

As to des-Arg^9 bradykinin, the “activity as peptide substrate for ACE2” value at ACE2 [1] (Vickers et al.) is recorded as “best in vitro peptide substrates”. Regarding `C[C@H](N[C@@H](CCc1ccccc1)C(=O)O)C(=O)N1[C@H](C(=O)O)C[C@H]2CCCC[C@@H]21` [trandolaprilat], in data set [3], the “decrease in affinity for the inhibitor” value was “about 8 fold”. With “Angiotensin 1-5: peptide DRVYI; SEQ ID NO: 10”, the “activity as peptide substrate for ACE2” value in the data set with ACE2 [1] (Vickers et al.) was “inactive”.
